Laboratory results reported in article PMC3312813 (Nature chemical biology, 2011).

Test system: live HeLa cells
Details: 8 µM Flu-HBS 3, HeLa cells, 2.5 hours, fixed, Z-section fluorescence microscopy

SMILES: CC[C@H](C)[C@H](NC(=O)CN1C/C=C/CCC(=O)N[C@@H](Cc2ccccc2)C(=O)N[C@@H](CCC(=O)O)C1=O)C(=O)N[C@@H](Cc1ccc(O)cc1)C(=O)N[C@@H](CCCNC(=N)N)C(=O)N[C@@H](CC(C)C)C(=O)N[C@@H](CCC(=O)O)C(=O)N[C@@H](CC(C)C)C(=O)N[C@@H](CC(C)C)C(=O)N[C@@H](CCCCN)C(=O)N[C@@H](C)C(=O)N[C@@H](CCC(=O)O)C(=O)N[C@@H](CCC(=O)O)C(=O)N[C@@H](C)C(=O)N[C@@H](CC(N)=O)C(=O)N[C@@H](CCCCNC(=O)c1ccc2c(c1)C(=O)OC21c2ccc(O)cc2Oc2cc(O)ccc21)C(N)=O [Flu-HBS 3]
- Cellular uptake at 4 °C as compared to 37 °C: significantly reduced
